Series [1] concerns the target T1, Rv2034 (ArsR family regulator) (Mycobacterium tuberculosis) (UniProt O53478).
T1 sequence: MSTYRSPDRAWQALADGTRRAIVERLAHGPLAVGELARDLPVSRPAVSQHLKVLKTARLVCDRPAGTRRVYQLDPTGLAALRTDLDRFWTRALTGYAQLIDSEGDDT
Nature of the series: EMSA.

Series [2] deals with T2, Rv2034ΔN28 del1-28 (Mycobacterium tuberculosis) (UniProt O53478).
T2 sequence: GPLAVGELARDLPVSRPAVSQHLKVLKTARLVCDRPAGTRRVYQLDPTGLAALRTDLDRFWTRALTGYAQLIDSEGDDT
The series can be described thus: EMSA. (In EMSA bound probe runs differently from free probe, usually more slowly.)

For series [3], the target named is T1, Rv2034 (ArsR family regulator) (Mycobacterium tuberculosis). Nature of the series: competition.
The target is the same in series [4]. The series can be described thus: DNase I footprinting.
Series [5] has as its target T3, Rv2034 (ArsR family regulator) (Mycobacterium tuberculosis, UniProt O53478 1-107).
T3 sequence: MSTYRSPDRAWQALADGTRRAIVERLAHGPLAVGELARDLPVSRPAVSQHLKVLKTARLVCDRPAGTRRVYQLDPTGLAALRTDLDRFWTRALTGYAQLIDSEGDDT
Nature of the series: EMSA; 0.1-1.2 uM protein. The following applies: protein: recombinant; tags: N-terminal His6 (pET28a); chain copies: 2; label: 5' label (32P or FITC); blunt.

Regarding “AATTTCTAGAGCCTGCGGCAAGCACGTCGGTTCCATAGCGATCCAGCACGCCGCAATACTAGGGAGCCTCTCTGCCGGTCATCGCCGCGACGCGCCGCATGGGTTCTCGGAAAATGCTTGTACCAGTCGACTTTCCGGCGGGCCAACGTCGCCAACCGATACTCGGCTCCAACGCCATGGGTGACGGGATGCCCGGATCACGTGTCACACCACCCGCGCACCCTTGCGGAAGAATATCCGTAAGTCTAAACTTACGGTTCGAATTCCCGG (double strand) [Rv2034p promoter]”, the binding result in series [1] was “binds”; in series [2] it was “no binding”; in series [3], “binds”.
For the molecule “ACTGTCTAGAGTTGGCGCATGTACACCTGAGCCGTCGGCTCGCCCACTGGACCCGGCTCTACCCCGAGGTGCGGGTGGATCGGGCCATCGCCGGCGGCAGTGCGTGCCGTCATCTGGCCGCCAACGCAAAGCCGGGTCAGCTGTTCGTCGCGGACTCACACTCCGCGCACGAATTGTGCGGTGCATACCAGCCCGGATGCGCCGTACTTACGGTACGCAGTGCCAACTTGTAGGGAGCGGATCTTGGGAGTGGTGCCCTGGAATTCATCT (double strand) [Rv3133cp (dosR promoter)]”, the binding entry in series [1] is recorded as “binds”.
Turning to “GATAGAATTCTACCAGTCGACTTTCCGGCGGGCCAACGTCGCCAACCGATACTCGGCTCCAACGCCATGGGTGACGGGATGCCCGGATCACGTGTCACACCACCCGCGCACCCTTGCGGAAGAATATCCGTAAGTCTAAACTTACGGTTCGTGTCCACTTACAGATCACCGGATCGCGCTTGGCAGGCGCTGGCGGACGGCACTCGCCGGGCCATCGTGGAGCGGCTGGCGCATCTAGATGTC (double strand) [Rv2034p footprint fragment]”, the binding result in series [4] was “binds”.

B1: Rv2034BSwt (dsDNA)
DNA 1: GGAAGAATATCCGTAAGTCTAAACTTACGGTTCGTGTCCA
DNA 2: TGGACACGAACCGTAAGTTTAGACTTACGGATATTCTTCC
As to B1, the binding result in series [5] was “binds”.

Source of the values: PMC3338718, “Characterization of a Novel ArsR-Like Regulator Encoded by Rv2034 in Mycobacterium tuberculosis”.
